What was measured:
[1] = test system: alfalfa (variety USD5) plants; test: Root biomass analysis of alfalfa transformants; format: in vivo; conditions: constitutive promoter, approximately 6 weeks in growth cabinet
Protocol: Cuttings of approximately equal size were taken from WT and alfalfa (variety USD5) plants transformed with Arabidopsis PPD under a constitutive promoter. Cuttings were planted into plastic grow bags containing potting mix. […] The increase in root biomass was quantified by washing the roots under running water (these were photographed, FIG. 12) then the attached above ground portion (leaves and stems) was removed and the roots dried at 65° C. for 48 hr then weighed Table 5.

DELLA (RGA1) = molecular target: T1, DELLA (RGA1) (Arabidopsis thaliana, UniProt Q9SLH3); test: Yeast two-hybrid (Y2H) interaction with DELLA (RGA1); format: binding; conditions: PPD1-DBD as bait, selective medium with 15 mM 3AT
T1 construct: expressed in transfected cells; host or cells: yeast strain MaV203
T1 sequence (Q9SLH3 with tags, fused parts or gaps): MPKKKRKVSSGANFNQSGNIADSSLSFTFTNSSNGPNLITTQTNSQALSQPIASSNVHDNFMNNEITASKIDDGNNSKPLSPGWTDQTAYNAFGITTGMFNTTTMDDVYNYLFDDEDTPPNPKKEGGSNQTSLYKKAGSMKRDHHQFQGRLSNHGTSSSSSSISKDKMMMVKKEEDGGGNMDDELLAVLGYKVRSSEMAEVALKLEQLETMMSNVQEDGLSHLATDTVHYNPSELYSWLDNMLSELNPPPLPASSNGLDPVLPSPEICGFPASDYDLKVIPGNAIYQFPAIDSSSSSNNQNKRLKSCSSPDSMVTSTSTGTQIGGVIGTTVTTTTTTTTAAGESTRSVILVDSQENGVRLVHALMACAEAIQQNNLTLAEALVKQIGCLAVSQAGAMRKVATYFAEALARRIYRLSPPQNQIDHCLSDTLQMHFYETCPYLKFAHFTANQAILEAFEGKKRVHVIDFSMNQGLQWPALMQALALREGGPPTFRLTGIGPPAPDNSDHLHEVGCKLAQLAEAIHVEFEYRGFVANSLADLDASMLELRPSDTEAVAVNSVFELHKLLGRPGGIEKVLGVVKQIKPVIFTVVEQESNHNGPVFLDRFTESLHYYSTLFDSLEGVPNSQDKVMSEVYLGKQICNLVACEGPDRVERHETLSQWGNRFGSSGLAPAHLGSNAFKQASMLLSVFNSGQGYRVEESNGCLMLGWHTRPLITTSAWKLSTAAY
Source text: The ProQuest two-hybrid system (Invitrogen) was used to analyse interactions between PPD1, and RGA1. Full length coding sequences of PPD1, together with truncation or deletion derivatives of PPD1 (PPD1Δppd, PPD1Δtify, and PPD1Δjas*) (FIG. 4), were Gateway sub-cloned into pDEST32 (N-terminal GAL4DBD) or pDEST22 (N-terminal GAL4AD). When translated these generated the following peptide sequences od SEQ ID NO: 58, 68, 69, 70, 71, 72, which are PPD1-DBD, RGA1, RGA1-AD, PPD1-ppd-DBD, PPD1-tify-DBD, PP1-jas*-DBD respectively.
Combinations of bait and prey constructs were used to co-transform yeast strain MaV203 (Invitrogen), with selection on synthetic dropout (SD) SD/-Leu/-Trp agar plates. Transformed strains were tested for interactions using 10 μl droplets of 1 in 10 and 1 in 100 dilutions on SD/-Leu/-Trp/-His plates with different concentrations of 3-aminotriazol (3-AT) (Sigma). The PPD1-RGA1 interaction was tested with PPD1-DBD used as bait. Transformed yeast was spotted as a ten-fold dilution on control medium (−2) or selective medium (−3) with 15 mM 3AT. Controls were empty vectors, DBD, GAL4 DNA binding domain, AD, GAL4 activation domain (FIG. 4).

NINJA = molecular target: T2, NINJA (Arabidopsis thaliana, UniProt Q9SV55); test: BiFC interaction with NINJA in Nicotiana benthamiana leaves; format: cell-based; conditions: in planta
T2 construct: expressed in transfected cells; host or cells: Nicotiana benthamiana leaves (Agrobacterium infiltration)
Source text: (§1) The binary BiFC-Gateway YFP vectors pDEST-VYNE(R)^GW (Venus aa 1-173) and pDEST-VYCE(R)^GW (Venus aa 156-239) with N-terminal fusions, were used to construct the following vectors; pDESTnYFP-BZR1, pDESTnYFP-NINJA, pDESTnYFP-PPD1, pDESTcYFP-BZR1, pDESTcYFP-PPD1, pDESTcYFP-PPD1Δppd, pDESTcYFP-PPD1Δtify and pDESTcYFP-PPD1Δjas*. […] Plasmids for co-immunoprecipitation: A synthesised DNA construct encoding PPD1 with a 3×c-myc C-terminal fusion was sub-cloned into pRSh1 to produce pRSh1-PPD1-3×c-myc, while the NINJA cDNA sequence was sub-cloned into pB7FWG2,0 (Karimi et al 2002, Trends Plant Sci. 7, 193-195) to construct pB7FWG2-NINJA-GFP.
(§2) For infiltration Agrobacterium tumefaciens GV3101 strains containing the binary vectors were re-suspended from plates and prepared for transformation as described for the LUC assay. All YFP and expression strains were mixed in ratios of 1:1 (vol/vol) with the addition of strain P19 at 1/10th volume. Five leaf discs were sampled from each infiltrated leaf after 40 h. Two hours prior to sampling for microscopic fluorescence observations leaves were infiltrated with a 1 μg/ml DAPI solution to stain nuclei. YFP fluorescence and DAPI staining was detected using an Olympus Fluoview FV10i confocal laser scanning microscope. Each experiment was repeated twice.

BZR1 = molecular target: T3, BZR1 (Arabidopsis thaliana, UniProt Q8S307); test: BiFC interaction with BZR1 in Nicotiana benthamiana leaves; format: cell-based
T3 construct: expressed in transfected cells; host or cells: Nicotiana benthamiana leaves (Agrobacterium infiltration)
T3 sequence (Q8S307 1-336): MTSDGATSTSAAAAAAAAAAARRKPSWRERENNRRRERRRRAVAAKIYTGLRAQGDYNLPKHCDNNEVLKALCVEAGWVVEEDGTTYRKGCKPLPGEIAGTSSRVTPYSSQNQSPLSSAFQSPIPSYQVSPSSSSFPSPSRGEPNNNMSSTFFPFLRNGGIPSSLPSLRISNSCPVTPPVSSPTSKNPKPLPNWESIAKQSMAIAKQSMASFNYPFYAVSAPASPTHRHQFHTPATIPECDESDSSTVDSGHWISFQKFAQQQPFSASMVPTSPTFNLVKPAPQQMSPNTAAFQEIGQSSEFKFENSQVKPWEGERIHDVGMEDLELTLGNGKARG
Source text: as §1, §2

T2 sequence (Q9SV55 with tags, fused parts or gaps): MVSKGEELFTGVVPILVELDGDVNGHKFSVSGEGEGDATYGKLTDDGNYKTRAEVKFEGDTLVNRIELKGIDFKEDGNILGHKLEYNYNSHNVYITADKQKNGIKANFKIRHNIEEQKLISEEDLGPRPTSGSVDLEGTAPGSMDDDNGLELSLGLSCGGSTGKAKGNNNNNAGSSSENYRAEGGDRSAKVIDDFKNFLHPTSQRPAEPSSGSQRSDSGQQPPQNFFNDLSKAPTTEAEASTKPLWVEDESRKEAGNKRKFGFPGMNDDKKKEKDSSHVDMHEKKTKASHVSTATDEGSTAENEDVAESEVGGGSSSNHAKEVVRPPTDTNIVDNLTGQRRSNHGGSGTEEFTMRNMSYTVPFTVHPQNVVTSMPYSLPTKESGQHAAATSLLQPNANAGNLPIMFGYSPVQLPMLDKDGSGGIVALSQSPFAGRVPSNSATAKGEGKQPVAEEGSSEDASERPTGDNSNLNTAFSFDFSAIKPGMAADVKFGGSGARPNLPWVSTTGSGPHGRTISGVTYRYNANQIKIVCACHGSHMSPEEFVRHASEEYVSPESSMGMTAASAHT

B1: Arabidopsis PPD: Arabidopsis thaliana PEAPOD 1 protein, At4g14713, SEQ ID NO: 1 (protein, listed as Arabidopsis thaliana)
chain: MDVGVSPAKSILAKPLKLLTEEDISQLTREDCRKFLKDKGMRRPSWNKSQAIQQVLSLKALYEPGDDSGAGIFRKILVSQPVNPPRVTTTLIEPSNELEACGRVSYPEDNGACHRMDSPRSAEFSGGSGHFVSEKDGHKTTISPRSPAETSELVGQMTIFYSGKVNVYDGIPPEKARSIMHFAANPIDLPENGIFASSRMISKLISKEKMMELPQKGLEKANSSRDSGMEGQANRKVSLQRYREKRKDRKFSKAKKCPGVASSSLEMFLNCQPRMKAAYSQNLGCTGSPLHSQSPESQTKSPNLSVDLNSEGI
root growth beyond the grow bag compared to WT plants [1]: increase in root biomass/growth/length/branching
Y2H binding to DELLA (RGA1) (DELLA (RGA1)): can directly bind
BiFC interaction with NINJA (NINJA): interacted with NINJA in plants
BiFC interaction with BZR1 (BZR1; fully expanded leaves, co-expression of NINJA): restored
BiFC interaction with BZR1 (BZR1; pavement cells of immature Nicotiana benthamiana leaves): appears to interact with BZR1 in the nucleus
